Among the data in patent publication US20200216536A1 (published 2020) are Kd, koff and kon values, retold here.

Changes are numbered by the printed parent chain. In names and notes the source's numbering stands. Several values for one entry are separate records, joined by “and”; a condition that tells them apart may be missing. Identical values can stand only once.

B1: canine IgG.B Fc (CH2-CH3) variant L252M (Fc fusion)
chain: APEMLGGPSVFIFPPKPKDTLMIARTPEVTCVVVDLDPEDPEVQISWFVDGKQMQTAKTQPREEQFNGTYRVVSVLPIGHQDWLKGKQFTCKVNNKALPSPIERTISKARGQAHQPSVYVLPPSREELSKNTVSLTCLIKDFFPPDIDVEWQSNGQQEPESKYRTTPPQLDEDGSYFLYSKLSVDKSRWQRGDTFICAVMHEALHNHYTQESLSHSPGK
B2: canine IgG.B Fc (CH2-CH3) variant L252Y (Fc fusion)
chain: B1 chain with M22Y
B3: canine IgG.B Fc (CH2-CH3) variant N434Y (Fc fusion)
chain: B1 chain with M22L, N206Y
B4: canine IgG.B Fc (CH2-CH3) variant N434A (Fc fusion)
chain: B1 chain with M22L, N206A
B5: canine IgG.B Fc (CH2-CH3) variant N434W (Fc fusion)
chain: B1 chain with M22L, N206W
B6: canine IgG.B Fc (CH2-CH3) variant N434S (Fc fusion)
chain: B1 chain with M22L, N206S
B7: canine IgG.B Fc (CH2-CH3) variant N434R (Fc fusion)
chain: B1 chain with M22L, N206R
B8: canine IgG.B Fc (CH2-CH3) variant A254T (Fc fusion)
chain: B1 chain with M22L, A24T
B9: canine IgG.B Fc (CH2-CH3) variant E380A (Fc fusion)
chain: B1 chain with M22L, E150A
B10: canine IgG.B Fc (CH2-CH3) variant A254S (Fc fusion)
chain: B1 chain with M22L, A24S
B11: canine IgG.B Fc (CH2-CH3) variant Y436A (Fc fusion)
chain: B1 chain with M22L, Y208A
B12: canine IgG.B Fc (CH2-CH3) variant P307A (Fc fusion)
chain: B1 chain with M22L, P77A
B13: canine IgG.B Fc (CH2-CH3) variant T250A (Fc fusion)
chain: B1 chain with T20A, M22L
B14: canine IgG.B Fc (CH2-CH3) variant G309A (Fc fusion)
chain: B1 chain with M22L, G79A
B15: canine IgG.B Fc (CH2-CH3) variant I308A (Fc fusion)
chain: B1 chain with M22L, I78A
B16: canine IgG.B Fc (CH2-CH3) variant L252A (Fc fusion)
chain: B1 chain with M22A
B17: canine IgG.B Fc (CH2-CH3) variant Q285A (Fc fusion)
chain: B1 chain with M22L, Q55A
B18: canine IgG.B Fc (CH2-CH3) variant D378A (Fc fusion)
chain: B1 chain with M22L, D148A
B19: canine IgG.B Fc (CH2-CH3) variant K315A (Fc fusion)
chain: B1 chain with M22L, K85A
B20: canine IgG.B Fc (CH2-CH3) variant T286A (Fc fusion)
chain: B1 chain with M22L, T56A
B21: canine IgG.B Fc (CH2-CH3) variant M428A (Fc fusion)
chain: B1 chain with M22L, M200A
B22: canine IgG.B Fc (CH2-CH3) variant H433A (Fc fusion)
chain: B1 chain with M22L, H205A
B23: canine IgG.B Fc (CH2-CH3) variant T256A (Fc fusion)
chain: B1 chain with M22L, T26A
B24: canine IgG.B Fc (CH2-CH3) variant Q311A (Fc fusion)
chain: B1 chain with M22L, Q81A
B25: canine IgG.B Fc (CH2-CH3) YTE variant (L252Y/A254T/T256E) (Fc fusion)
chain: B1 chain with M22Y, A24T, T26E
B26: canine IgG.B Fc (CH2-CH3) variant N434H (Fc fusion)
chain: B1 chain with M22L, N206H
B27: canine IgG.B Fc (CH2-CH3) variant D378V (Fc fusion)
chain: B1 chain with M22L, D148V
B28: canine IgG.B Fc (CH2-CH3) variant Q311V (Fc fusion)
chain: B1 chain with M22L, Q81V
B29: canine IgG.B Fc (CH2-CH3) variant T250E (Fc fusion)
chain: B1 chain with T20E, M22L
B30: canine IgG.B Fc (CH2-CH3) variant T250Q (Fc fusion)
chain: B1 chain with T20Q, M22L
B31: canine IgG.B Fc (CH2-CH3) variant G309P (Fc fusion)
chain: B1 chain with M22L, G79P

One test concerns the target T1, canine FcRn (UniProtKB-E2ROL6 [FcRn] and UniProtKB-E2RN10 [canine beta-2-microglobulin]) (canine).
T1 construct: Soluble analyte injected in SPR
Put plainly: SPR Biacore 8K, pH 5.5, Fc captured on BSA via SASA tag, FcRn 200 nM. Background: In SPR one partner is held on a chip, and binding of the other changes the refractive index at the surface.
The term Kd denotes the free concentration of one partner at which half of the binding sites on the other are occupied at equilibrium, for simple one-to-one binding. As a reminder, the koff is the first-order rate constant of dissociation. Usually kon stands for the second-order rate constant of association. Read a low kon as slow association. Turning to B1, the Kd was 869 nM and 774 nM; the koff is 0.168 s⁻¹ and 0.169 s⁻¹; the kon is 193000 M⁻¹ s⁻¹ and 218000 M⁻¹ s⁻¹.

Take B2: the Kd was 98.7 nM and 114 nM; the koff is 0.0397 s⁻¹ and 0.041 s⁻¹; the on-rate constant (kon) was 402000 M⁻¹ s⁻¹ and 358000 M⁻¹ s⁻¹.

The target of another test is T1, canine FcRn (UniProtKB-E2ROL6 [FcRn] …). Described as above. The source holds these as a separate data set.
B3 gave a Kd of 15.9 nM, a dissociation rate constant (koff) of 0.00968 s⁻¹ and an on-rate (kon) of 607000 M⁻¹ s⁻¹.

B4: the Kd is 573 nM and 629 nM; the off-rate constant (koff) is 0.156 s⁻¹ and 0.164 s⁻¹; the kon was 272000 M⁻¹ s⁻¹ and 261000 M⁻¹ s⁻¹.

On to B5, for which the dissociation constant (Kd) is 40.4 nM and 75.7 nM.

Regarding B6, the Kd is 924 nM and 1050 nM; the off-rate (koff) was 0.207 s⁻¹ and 0.209 s⁻¹; the association rate constant (kon) was 225000 M⁻¹ s⁻¹ and 199000 M⁻¹ s⁻¹.

As to B7, the Kd is 107 nM and 159 nM; the koff was 0.0524 s⁻¹ and 0.0633 s⁻¹; the association rate constant (kon) was 488000 M⁻¹ s⁻¹ and 399000 M⁻¹ s⁻¹.

The next test shares this target. The description is as above. This is another data set of the same source.
On to B8, for which the equilibrium dissociation constant (Kd) was 2290 nM and 1340 nM; the off-rate constant (koff) is 0.375 s⁻¹ and 0.433 s⁻¹; the kon was 163000 M⁻¹ s⁻¹ and 323000 M⁻¹ s⁻¹.

For a further test the target is unchanged. Put plainly: SPR Biacore 8K, pH 5.5, Fc captured on BSA via SASA tag, FcRn 400 nM.
For B9, the dissociation constant Kd is 618 nM and 747 nM; the off-rate (koff) was 0.369 s⁻¹ and 0.18 s⁻¹; the kon is 598000 M⁻¹ s⁻¹ and 241000 M⁻¹ s⁻¹.

As to B10, the Kd is 340 nM and 317 nM.

With B11, the Kd is 393 nM and 876 nM; the koff was 0.407 s⁻¹ and 0.213 s⁻¹.

Take B4: the Kd is 457 nM and 494 nM; the koff is 0.237 s⁻¹ and 0.477 s⁻¹; the association rate constant (kon) was 518000 M⁻¹ s⁻¹ and 966000 M⁻¹ s⁻¹.

For the molecule B12, the Kd is 325 nM and 338 nM.

Regarding B13, the Kd is 335 nM and 328 nM.

As to B14, the equilibrium dissociation constant (Kd) was 245 nM and 294 nM.

B15: the Kd was 472 nM and 563 nM; the koff was 0.169 s⁻¹ and 0.194 s⁻¹; the kon is 357000 M⁻¹ s⁻¹ and 345000 M⁻¹ s⁻¹.

Turning to B16, the dissociation constant Kd was 292 nM and 240 nM.

In the case of B17, the Kd is 341 nM and 257 nM.

For B18, the equilibrium dissociation constant (Kd) is 673 nM and 592 nM; the koff was 0.183 s⁻¹ and 0.181 s⁻¹; the on-rate (kon) is 272000 M⁻¹ s⁻¹ and 306000 M⁻¹ s⁻¹.

For B19, the Kd was 422 nM and 548 nM.

For the molecule B20, the Kd is 464 nM and 569 nM; the koff was 0.196 s⁻¹ and 0.304 s⁻¹; the kon is 422000 M⁻¹ s⁻¹ and 533000 M⁻¹ s⁻¹.

In the case of B21, the Kd was 723 nM and 1670 nM; the on-rate (kon) was 234000 M⁻¹ s⁻¹ and 318000 M⁻¹ s⁻¹.

Take B22: the Kd is 266 nM and 359 nM; the koff was 0.229 s⁻¹ and 0.0997 s⁻¹.

In the case of B23, the Kd was 447 nM and 298 nM.

With B24, the dissociation constant Kd is 368 nM and 370 nM; the koff was 0.894 s⁻¹ and 0.496 s⁻¹; the kon was 2.43e+06 M⁻¹ s⁻¹ and 1.34e+06 M⁻¹ s⁻¹.

For the next test the target is unchanged. Put plainly: SPR Biacore 8K, pH 5.5, Fc captured on BSA via SASA tag, FcRn 100-800 nM.
For the molecule B25, the dissociation constant (Kd) came out at 184 nM, the koff stood at 0.046 s⁻¹ and the kon came to 250000 M⁻¹ s⁻¹.

On to B3, for which the Kd turned out to be 29.1 nM, the dissociation rate constant (koff) came out at 0.0151 s⁻¹ and the kon was found to be 520000 M⁻¹ s⁻¹.

For the molecule B5, binding was put at a Kd of 101 nM, the off-rate (koff) is 0.045 s⁻¹ and the on-rate constant (kon) was 446000 M⁻¹ s⁻¹.

B26 returned a Kd of 247 nM, a koff of 0.102 s⁻¹ and an on-rate constant (kon) of 411000 M⁻¹ s⁻¹.

B7 yielded an equilibrium dissociation constant (Kd) of 182 nM, an off-rate (koff) of 0.0801 s⁻¹ and an on-rate (kon) of 440000 M⁻¹ s⁻¹.

Turning to B2, the equilibrium dissociation constant (Kd) is 173 nM, the koff worked out at 0.0476 s⁻¹ and the on-rate (kon) worked out at 275000 M⁻¹ s⁻¹.

The target is the same in another test. Kind of test: SPR Biacore 8K, pH 5.5, Fc captured on BSA via SASA tag, FcRn 200 nM. The source holds these as a separate data set.
On to B9, for which the equilibrium dissociation constant (Kd) is 1320 nM and 1570 nM; the koff was 0.223 s⁻¹ and 0.239 s⁻¹; the on-rate constant (kon) is 168000 M⁻¹ s⁻¹ and 152000 M⁻¹ s⁻¹.

Another test shares this target. The description is as above. The source holds these as a separate data set.
Turning to B27, the dissociation constant (Kd) is 693 nM and 873 nM; the off-rate (koff) was 0.159 s⁻¹ and 0.16 s⁻¹; the on-rate constant (kon) is 229000 M⁻¹ s⁻¹ and 184000 M⁻¹ s⁻¹.

The next test shares this target. The description is as above. This is another data set of the same source.
As to B28, the equilibrium dissociation constant (Kd) is 372 nM and 439 nM; the off-rate constant (koff) was 0.566 s⁻¹ and 0.696 s⁻¹; the on-rate (kon) was 1.52e+06 M⁻¹ s⁻¹ and 1.59e+06 M⁻¹ s⁻¹.

Another test has the same target. The test is described as above. The source holds these as a separate data set.
As for B29, the Kd was 2480 nM and 1660 nM; the koff is 0.284 s⁻¹ and 0.287 s⁻¹; the kon is 114000 M⁻¹ s⁻¹ and 172000 M⁻¹ s⁻¹.

Take B30: the Kd is 2590 nM and 2840 nM; the koff was 0.258 s⁻¹ and 0.268 s⁻¹; the kon is 99600 M⁻¹ s⁻¹ and 94300 M⁻¹ s⁻¹.

For a further test the target is unchanged. The test is described as above. The source holds these as a separate data set.
For the molecule B31, the dissociation constant Kd was 635 nM and 434 nM and 637 nM and 718 nM; the off-rate constant (koff) was 0.239 s⁻¹ and 0.242 s⁻¹ and 0.132 s⁻¹ and 0.145 s⁻¹; the kon is 377000 M⁻¹ s⁻¹ and 558000 M⁻¹ s⁻¹ and 207000 M⁻¹ s⁻¹ and 202000 M⁻¹ s⁻¹.
